Reference: the supplement of paper PMC9170038

The sequences below were run on K4 kissing-loop RNA reporter (assay: apparent KD of K4 kissing-loop reporter; higher = weaker reporter binding). Conditions: Eterna round: R107; input ligand: none.
Method: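 RNA-MaP round R107: designed RNA switches with theophylline, tryptophan, arginine or FMN aptamers are transcribed on-chip within common flanks. They are titrated with a labelled K4 kissing-loop RNA reporter in RNA-MaP buffer (100 mM Tris pH 7.5, 80 mM KCl, 4 mM MgCl2), without ligand or with the indicated ligand. Median apparent KD per design.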
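Note: bound reporter read as fluorescence of individual clusters on recovered sequencing chips by microscopy, with normalized cluster intensities fitted with a binding model.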

Sequence | apparent KD of K4 kissing-loop reporter
GUGCAAAGCACCGGCACGAGCAGCUUAAAGGAGGAUAUGACGAAAGUCAGAAGGUUUAGUGAUGUUAGGCCUUGCUUGAGUCGAA [#01 K4 FMN A Exclusion] | 282 nM
GCUAUGGUAGGAAGGAGCGCUUAUUUAUUUUUAAGAGUGAUGUUCGUUAGUAGAUAUUUAAAGCAGGUAGGUCGCCUACUAUAGC [Arginine B K4 14] | 84 nM
UGUCAUUGGUCUGAUACCAGUUAGACCGAUAGGUCAAAACUGGAGUGAUGUUCCUAAAAUAACCCUUGGCAGCAGACCGAUGACU [TheoBS 2 #SwitchBubble #StaticStem] | 1010 nM
AAGUCAUAUAGAAGGAGCGUGUUUUUUAAUUUGUUUUCAUGAUCGAGUGAUGUUCGAUAUACACAGGUAGGUCGCUGUAUAAUAA [hbob_SS_Arginine_B_2t142] | 131 nM
ACGGGUCGACGAAGGAGCGCCGUGCAGUGAUGUUGCAGUUAGAUCCAGUGAUGUUUGGGCCGGCAGGUAGGUCGCGUCGACUCAU [Exclusion Arginine B GF 21] | 278 nM
UUUGGAGUGGGAGGAUAUCCUAAUAUGGGUGAUGUUAGCGAUGUUGAAAGUGUAGUGAUGUUGUGCGGAGAAGGUCCAGUGUAGA [BDazzled - #14 - Exc. FMN B] | 285 nM
GGUAGCAUGGCGGCCGCCACUCUAUGCGAGUGAUGUUCGCAGCUCAAAGAGCACCCGGGAACAGAGAGGACCGGGCCAUGCUACC | 261 nM
UGACUGGACUGAAGGAGCGCGCGAGACAAAGUCUCGAACUGCUAGUGAUGUUAGCGAAUAACGCAGGUAGGUCGCAGUCUAGUCU [ArgBS 14 #SwitchBubble #StaticStem] | 175 nM
UGCAGUGAUGUUGCUAUUUUUCUUGAUUAACGAGGACCGGUACGGCCGCCACUCGAUUUCUCUCUAAUCCAGUAUGUUGUUUGAU [whbob_EX_Tryp_A_t4] | 112 nM
ACAUGACGUGCGCCCGUCAUGAAACGUGCAAAGGAUAUUCCGUUUUGAAGAAGGUUGCGGUAGUGUAGUGAUGUUGCUCCGCCGU [theeternabot_sameState_KL_FMN_A_11] | 343 nM
AAGCAGUCACUCGACGCCAUCGAAGAUGGGCGAGGACCGGUACGGCCGCCACUCGGAGUGAUGUUCCGAAGACUGCAAAAUAAAA [MatMod 6 - Jieux - Exclusion - Tryptophan A] | 384 nM
AAUGUACAGGGAAGGAGCGUAGUCCAGUGAUGUUGGAGUUAAAUACCAGUGAUGUUGGUUAUACAGGUAGGUCGCCCUAAAGUGC [Exclusion Arginine B Gf 4] | 80.9 nM
CUCGAGUGAUGUUCGAUUAUUUAUACAGAUACCAGUGAAUUUUAACACCCUUGGCAGCUGGUUGUAUCAUUUUUUUUUACUAAAG [JR_ExcTheophyA_Sub008] | 179 nM
UGUACCGAGUGAGGAUAUGUCGUCGAAAGACGAAAUGGAGUGAUGUUCCUUAAACUGCGAAAGCAGACAGAAGGCACUUGGUACU [FmnBS 29 G11+C75] | 192 nM
UGAUACCAGACUGAUACCAGCUAGUGAUGUUAGCUGAAAUCAGGGUCAAAGACCCUGUCUAGCCCUUGGCAGCAGUCUGGUAUCU [TheoBX 9 #SwitchBubble #StaticStem] | 98.3 nM
GAAAGAAAGAAUGAUACCAGACACCCGAGUGAUGUUCGGAGCAGAGUGAUGUUCUUUUAAGUCCCUUGGCAGCAUAAAAGAAAAG [whbob_SS_Theo_B_sa82] | 153 nM
UGACUACAAGGAAAAUAAUCCUAGUGAUGUUAGGAUAUGCUGAUAAGCAGAAGGAACUGAGAUCGAAAGAUCUCAAAUGUAGUCU [FmnAX 27 Mat Inspired #SwitchBubble #StaticStem #K4Early] | 87.2 nM
AACCUACGAUCACAAUAGUGAUUGUAGGACUAGGAUAUGCUGAAAAGCAGAAGGAGUGAUGUUCCGUCAUGAAUAACAUGACAAA [FmnAX 3 #OpenEnded #K4Late #CoaxialStacking] | 455 nM
GGUAGCAUGGCGGCCGCCACUUAGACUGGAUCGGAAACGAUCCAGUGAAAACGAGUGAUGUUCGUAAGGACCGGGCCAUGCUACC | 318 nM
AAAUUUAUAUUAGAUACCAGCAUUUUGAAUGUUUAUUAUGACAAGAGUGAUGUUCUUGUAUGCCCUUGGCAGCUGGUAUGGGUUU [KL-XTheo-B24] | 136 nM
GGUAGCAUGGCGGCCGCCACUACCUAGUGAUGUUAGGCUGUGGACAUAGGAGCAAAAUAAAUAUGUAGGACCGGGCCAUGCUACC | 121 nM

Same assay, conditions: Eterna round: R107; input ligand: theophylline 20 uM

Sequence | apparent KD of K4 kissing-loop reporter
UGUGUUUACCUGACUCAGUGAUGUUGAGAAGGAGCGUGCGAAAGCACAGGUAGGUCGCUCAACCUAAAAUUCAGGUGAGCACUAA [#SwitchBubble 11 #K4Early] | 263 nM
AGUACAAUGGCGGCCGCCACUCAAUGGCAGAUCAAAGAUCUGCAUCACUCAGUGAUGUUGAGUGAGAGGACCGGGCCUUUGUACA [Omei KL Tryp B SS B v7] | 505 nM
GGAUAGGACUGAGGAUAUGGGCUAGGCAAGAAUAACUUGUCUAGCAAAUCCAUGAGGAGUGAUGUUCCAGAAGGCAGUCCUAUCG [FmnBX 1 U10+A76] | 167 nM
UCUGAAUUAUCUGAUACCAGACUUUUUGUAUUUAUUAAAACUAGUGAUGUUAGUUUAUCUGUCCCUUGGCAGCAGUUUCUACAGA [JR_Nu_ExcTheophyB_Sub022] | 90.8 nM
AAGCAGUCACUCGAAAUCAUCGAAGAUGAACGAGGACCGGUACGGCCGCCACUCGGAGUGAUGUUCCGAAGACUGCAAAAUAAAA [MatMod 1 - Jieux - Exclusion - Tryptophan A] | 477 nM
UUCAGACUACUACUAUUUAGUAGUAUAUACUAGGAUAUCCAGAUAUGGAGAAGGAGUGAUGUUCCUUAGUAGUAGUGAAUUAAAU [KL-XFMN-A6] | 144 nM
AUCAGUGUCUCACGCUACGACAUAUACGAUACCAGUCACCCUGAUGACCCUUGGCAGCGUCAACGAGUGAUGUUCGGGUUCUAGA [theeternabot_sameState_KL_Theo_A_1] | 389 nM
AUUGCGGCCGUUCUAUCACCAGGCGGAGAUACCAGAUGCCAGCAGAUCCCUUGGCAGCUCUGCACGAGAUCCAGUGAUGUUGGGU [theeternabot_exclusion_KL_Theo_A_9] | 288 nM
UUUUUCGCGUUUGAUACCAGCAGAGUUGUUCUUGUCUGGAACAUGAGUGAUGUUCAUGUCUGCCCUUGGCAGCAAACGGGAGAAG [KL-XTheo-B12] | 114 nM
AGUAAUGAGUGAUGUUCAAGUAGUAAGGAUACCAGUAAUUCAAAAUGCCCUUGGCAGCUUAGCGCUACCAAUAGAUGGGUAGUGG [Theophilline A V3 (+6G)] | 297 nM
UGACAUUGCUCAGAUACCAGACCUGAGGAACACCCAGGUGCCAAAACGUACUAAAUAAAGGUCCCUUGGCAGCUGAGCAAUGUCU [TheoBX 13] | 77.6 nM
GGAGUUACCUGGGAUACCAGUCGGAGGCCCAGAGCUCGGAGUGAUGUUCUGGGAUGUUUCGGCCCUUGGCAGCUCUGGGUCUCCC [#2 Exclusion - Theophylline B Attempt #7 (HarryS)] | 895 nM
GGAAAUCUUGCCGAUACCAGAUCGCGCGGCCAUUGCUAGUGAUGUUGGCAAUAAGUACUCAUCCCUUGGCAGCGGUAAGGCAGUG [theeternabot_sameState_KL_Theo_B_23] | 195 nM
UCACCGCCUAGUGAUGUUACGCGACUCAGAAAGGAUAUAAUCAAUCUUAGAAGGUUCACACCGUAUGGAUAUUAUCUAUCUCGUU [theeternabot_exclusion_KL_FMN_A_39] | 437 nM
GUAGGAUGAGGAGGAGGAUGAAUUACUGAAGGAGCGCAAAGAAAUGCAGGUAGGUCGCGGUAAAGAAGUAUAGUGAUGUUAUAUA [SSArgA.E] | 426 nM
AAUAUAUAGUGAAGGAGCGCGAUAAGCAGUGAUGUUGCUUAGUUAUUAGUGUUUAUUUUUACGCAGGUAGGUCGCACUAUAUAUA [JR_ExcArginiB_Sub017] | 101 nM

Sequence | apparent KD of K4 kissing-loop reporter
CGCCAGUGAUGUUGGUGCAGCUACCGGGAAGGAGCGCCCAUAAGGGCAGGUAGGUCGCCCGGGCAGUGAUGUUGCCUCAUGCCGC [Exclusion Arginine A GF 22] | 234 nM
UUAGUCUAGAGAGGAUAUCAGUGAUGUUGAUAUCAAGAUCUGAGAUAGAAUUCUAUCUCAGAUCAAUGAGAAGGCUCUAGACAUU [AK1.2 Exc FMN B] | 147 nM
UGUAUGUGAUUUGAUACCAGACCAGCUGGUGGUACCUGAGUGAUGUUCGGGAUGGUCUGGGUCCCUUGGCAGCAAAUCGCAUACU [KL-SSTheoB21] | 212 nM
UUUCGGUUCUGAGGAUAUUCGGACAAAUAUAGUGAUGUUGUAUAAGGAGGAGGGUGUUGGCAGUGCGGAGAAGGCAGACCAGGAU [ExFMNB.W] | 878 nM
UACUAUAGUGAUGUUAUAGAUAAACCAGAUACCAGUGUAACAUAACACCCUUGGCAGCUGAUGAGGGAACUAUUGAAAACAAUAG [AstroSTH-A#7newdesignED4.86] | 223 nM
GUGCAAAGCACCGGCACGAGCAGCUUAAAGGAGGAUAUGACGAAAGUCAGAAGGUUUAGUGAUGUUAGGCCUUGCUUGAGUCGAA [#01 K4 FMN A Exclusion] | 413 nM
GCUAUGGUAGGAAGGAGCGCUUAUUUAUUUUUAAGAGUGAUGUUCGUUAGUAGAUAUUUAAAGCAGGUAGGUCGCCUACUAUAGC [Arginine B K4 14] | 120 nM
UGUCAUUGGUCUGAUACCAGUUAGACCGAUAGGUCAAAACUGGAGUGAUGUUCCUAAAAUAACCCUUGGCAGCAGACCGAUGACU [TheoBS 2 #SwitchBubble #StaticStem] | 856 nM
AAGUCAUAUAGAAGGAGCGUGUUUUUUAAUUUGUUUUCAUGAUCGAGUGAUGUUCGAUAUACACAGGUAGGUCGCUGUAUAAUAA [hbob_SS_Arginine_B_2t142] | 127 nM
ACGGGUCGACGAAGGAGCGCCGUGCAGUGAUGUUGCAGUUAGAUCCAGUGAUGUUUGGGCCGGCAGGUAGGUCGCGUCGACUCAU [Exclusion Arginine B GF 21] | 291 nM
UUUGGAGUGGGAGGAUAUCCUAAUAUGGGUGAUGUUAGCGAUGUUGAAAGUGUAGUGAUGUUGUGCGGAGAAGGUCCAGUGUAGA [BDazzled - #14 - Exc. FMN B] | 292 nM
GGUAGCAUGGCGGCCGCCACUCUAUGCGAGUGAUGUUCGCAGCUCAAAGAGCACCCGGGAACAGAGAGGACCGGGCCAUGCUACC | 302 nM
UGACUGGACUGAAGGAGCGCGCGAGACAAAGUCUCGAACUGCUAGUGAUGUUAGCGAAUAACGCAGGUAGGUCGCAGUCUAGUCU [ArgBS 14 #SwitchBubble #StaticStem] | 155 nM
UGCAGUGAUGUUGCUAUUUUUCUUGAUUAACGAGGACCGGUACGGCCGCCACUCGAUUUCUCUCUAAUCCAGUAUGUUGUUUGAU [whbob_EX_Tryp_A_t4] | 142 nM
ACAUGACGUGCGCCCGUCAUGAAACGUGCAAAGGAUAUUCCGUUUUGAAGAAGGUUGCGGUAGUGUAGUGAUGUUGCUCCGCCGU [theeternabot_sameState_KL_FMN_A_11] | 315 nM
